From US20060292117A1 come the findings set out here.

The target of the experiment is serpin enzyme complex receptor (secR) on IB3 cells. As to the kind of experiment: cell-based or functional assay.

Turning to “VP1 serpin virus (AAV2 capsid with serpin ligand FVFLI substituted for the capsid sequence immediately after aa 34) (from UniProt P03135 1-34; P03135 40-735; P03135 138-735; P03135 203-735)”, the infectivity on IB3 cells (hAAT ELISA) against wt capsid stood at 62 fold.
